Reference: US5763571

Target: c-Ha-Ras bound to GTP (Ras-GTP) (Homo sapiens (Human)) (UniProt P01112)
Assay: assay not given

Question: How did the fold reduction in binding affinity against Raf(1-149) turn out when Raf(1-137) was run?
Answer: 10 fold
